Test results from patent US20040058416A1 (published 2004).

Key:
[1] = target: T1, trkB-IgG immunoadhesin (human trkB extracellular domain fused to human IgG-1 Fc) (human); test: competitive displacement of iodinated BDNF from trkB-IgG by unlabelled NT3
T1 construct: also called chimeras containing trkB

[2] = target: T2, trkA-IgG immunoadhesin (human trkA extracellular domain fused to human IgG-1 Fc) (human, UniProt P04629 33-408); test: competitive displacement of iodinated NGF from trkA-IgG by unlabelled NT3
T2 construct: also called native trkA; chimeras containing trkA extracellular domain; not shown: human IgG-1 hinge-CH2-CH3 (aspartic acid 216 to residue 441)

[3] = target: T1, trkB-IgG immunoadhesin (human trkB …); test: competitive displacement of iodinated BDNF from trkB-IgG by unlabelled BDNF
[4] = target: T3, nerve growth factor (NGF) (UniProt P01138 122-241, limits assumed, iodinated (125I) where used as tracer); test: saturation binding with 125I-NGF, immunoadhesin
T3 construct: also called 125I-NGF; labelled NGF

[5] = target: T3, nerve growth factor (NGF); test: NGF binding to immunoadhesin (competitive displacement, as in Example 4)

T1 sequence (Q16620 32-423): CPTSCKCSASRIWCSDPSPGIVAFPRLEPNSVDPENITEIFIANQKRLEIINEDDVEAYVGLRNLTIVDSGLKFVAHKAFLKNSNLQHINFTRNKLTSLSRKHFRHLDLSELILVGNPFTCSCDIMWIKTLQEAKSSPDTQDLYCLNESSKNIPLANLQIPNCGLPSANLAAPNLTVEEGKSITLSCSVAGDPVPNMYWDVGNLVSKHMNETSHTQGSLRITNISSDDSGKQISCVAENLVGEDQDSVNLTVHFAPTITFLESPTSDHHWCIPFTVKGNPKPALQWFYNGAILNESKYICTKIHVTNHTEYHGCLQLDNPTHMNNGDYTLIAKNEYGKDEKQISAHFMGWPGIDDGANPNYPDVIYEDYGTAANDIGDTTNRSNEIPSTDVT

B1: neurotrophin-3 (NT-3) (ligand, UniProt P20783 139-257, looked up)
chain: YAEHKSHRGEYSVCDSESLWVTDKSSAIDIRGHQVTVLGEIKTGNSPVKQYFYETRCKEARPVKNGCRGIDDKHWNSQCKTSQTYVRALTSENNKLVGWRWIRIDTSCVCALSRKIGRT
modifications: radiolabelled (iodinated) where used as tracer
notes: also called labelled NT3; cold NT3
[1]
  IC50: 18 nM
[2]
  IC50: 20 nM

B2: brain-derived neurotrophic factor (BDNF) (ligand, UniProt P23560 129-247, looked up)
chain: HSDPARRGELSVCDSISEWVTAADKKTAVDMSGGTVTVLEKVPVSKGQLKQYFYETKCNPMGYTKEGCRGIDKRHWNSQCRTTQSYVRALTMDSKKRIGWRFIRIDTSCVCTLTIKRGR
modifications: radiolabelled (iodinated) where used as tracer
notes: also called NT-2; labelled BDNF
[3]
  IC50: 0.081 nM

B3: trkC variant s5A immunoadhesin (trkC Val297 to Thr420 replaced with trkA Ser277 to Val402) (Fc fusion, not shown: a dimerising Fc or GST)
chain: CPANCVCSKTEINCRRPDDGNLFPLLEGQDSGNSNGNANINITDISRNITSIHIENWRSLHTLNAVDMELYTGLQKLTIKNSGLRSIQPRAFAKNPHLRYINLSSNRLTTLSWQLFQTLSLRELQLEQNFFNCSCDIRWMQLWQEQGEAKLNSQNLYCINADGSQLPLFRMNISQCDLPEISVSHVNLTVREGDNAVITCNGSGSPLPDVDWIVTGLQSINTHQTNLNWTNVHAINLTLVNVTSEDNGFTLTCIAENVVGMSNASSVQVNVSFPASVQLHTAVEMHHWCIPFSVDGQPAPSLRWLFNGSVLNETSFIFTEFLEPAANETVRHGCLRLNQPTHVNNGNYTLLAANPFGQASASIMAAFMDNPFEFNPEDPIPDTNSTSGDPV
notes: also called s5A chimera
[4]
  Kd: 0.0386 nM

B4: trkA variant ?4A immunoadhesin (deletion of Val193 to Val282 of trkA) (Fc fusion, not shown: a dimerising Fc or GST)
chain: AAPCPDACCPHGSSGLRCTRDGALDSLHHLPGAENLTELYIENQQHLQHLELRDLRGLGELRNLTIVKSGLRFVAPDAFHFTPRLSRLNLSFNALESLSWKTVQGLSLQELVLSGNPLHCSCALRWLQRWEEEGLGGVPEQKLQCHGQGPLAHMPNASCGSFPASVQLHTAVEMHHWCIPFSVDGQPAPSLRWLFNGSVLNETSFIFTEFLEPAANETVRHGCLRLNQPTHVNNGNYTLLAANPFGQASASIMAAFMDNPFEFNPEDPIPDTNSTSGDPV
notes: 'Mature' variant
[5]
  fold reduction of affinity for NGF relative to native trkA: ~2 fold
